Changes are numbered by the printed parent chain. In names and notes the source's numbering stands.

The text below walks through data of article PMC10786891, “Massively parallel profiling of RNA-targeting CRISPR-Cas13d”.

Sequences and labels used below:
B1: target 1 A9U,A18C (mixed)
RNA 1: CACCCGUGCAAAAAUGCAGGGGUCUAAAACUGAGCGGAUAACCUCUCUAUGG
RNA 2: GGGAAUGGAUCCACAUCUACGAAUUCGUACCAUCGAGAGGUUUUCCGCUCACCGAGAUCGGAAGAGCACACGU
B2: target 1 U3G,A9C (mixed)
RNA 1: B1 RNA 1
RNA 2: B1 RNA 2 with C34A, U43C, U49G
B3: target 1 G12U,A18G (mixed)
RNA 1: B1 RNA 1
RNA 2: B1 RNA 2 with C34G, G40U, U43A
B4: target 1 insA 3' of 19,insU 3' of 12 (mixed)
RNA 1: B1 RNA 1
RNA 2: GGGAAUGGAUCCACAUCUACGAAUUCGUACCAUAAGAGAGGUUUAUCCGCUCACCGAGAUCGGAAGAGCACACGU
B5: target 1 C6A (mixed)
RNA 1: B1 RNA 1
RNA 2: B1 RNA 2 with C34A, U43A, C46A
B6: target 1 insU 3' of 18,insU 3' of 1 (mixed)
RNA 1: B1 RNA 1
RNA 2: GGGAAUGGAUCCACAUCUACGAAUUCGUACCAUAUGAGAGGUUAUCCGCUCAUCCGAGAUCGGAAGAGCACACGU
B7: target 1 U3G,G5A (mixed)
RNA 1: B1 RNA 1
RNA 2: B1 RNA 2 with C34A, U43A, G47A, U49G
B8: target 1 U10G,A14C (mixed)
RNA 1: B1 RNA 1
RNA 2: B1 RNA 2 with C34A, A38C, U42G, U43A
B9: target 1 insU 3' of 5,insC 3' of 5 (mixed)
RNA 1: B1 RNA 1
RNA 2: GGGAAUGGAUCCACAUCUACGAAUUCGUACCAUAGAGAGGUUAUCCGUCCUCACCGAGAUCGGAAGAGCACACGU
B10: target 1 C7G,U11A (mixed)
RNA 1: B1 RNA 1
RNA 2: B1 RNA 2 with C34A, U41A, U43A, C45G
B11: target 1 U8A,G12U (mixed)
RNA 1: B1 RNA 1
RNA 2: B1 RNA 2 with C34A, G40U, U43A, U44A
B12: target 1 insG 3' of 19,insA 3' of 15 (mixed)
RNA 1: B1 RNA 1
RNA 2: B4 RNA 2 with A34G, G40A, U42G
B13: target 1 insC 3' of 12,insA 3' of 8 (mixed)
RNA 1: B1 RNA 1
RNA 2: B9 RNA 2 with U41C, A43U, U44A, C45U, C46A, G47C, U48C, C49G
B14: target 1 insC 3' of 17,insU 3' of 5 (mixed)
RNA 1: B1 RNA 1
RNA 2: B4 RNA 2 with A35G, G36C, U44A, A45U, U46C, C48G, G49U
B15: target 1 del9,del13 (mixed)
RNA 1: B1 RNA 1
RNA 2: GGGAAUGGAUCCACAUCUACGAAUUCGUACCAUAGAGAGUUUCCGCUCACCGAGAUCGGAAGAGCACACGU
B16: target 1 G13A,A14U (mixed)
RNA 1: B1 RNA 1
RNA 2: B1 RNA 2 with C34A, A38U, G39A, U43A
B17: target 1 insC 3' of 10,insA 3' of 5 (mixed)
RNA 1: B1 RNA 1
RNA 2: B9 RNA 2 with A43C, U44A, C45U, G47C, U48G, C49A
B18: target 1 insA 3' of 21,insG 3' of 16 (mixed)
RNA 1: B1 RNA 1
RNA 2: B4 RNA 2 with U33A, A34U, A39G, G40A, U42G
B19: target 1 complement block 6-9 (mixed)
RNA 1: B1 RNA 1
RNA 2: B1 RNA 2 with C34A, U44A, C45G, C46G
B20: target 1 C4G,U10A (mixed)
RNA 1: B1 RNA 1
RNA 2: B1 RNA 2 with C34A, U42A, U43A, C48G
B21: target 1 insU 3' of 9,insA 3' of 6 (mixed)
RNA 1: B1 RNA 1
RNA 2: B9 RNA 2 with C45U, G47C, U48A, C49G
B22: target 1 del11,del13 (mixed)
RNA 1: B1 RNA 1
RNA 2: B15 RNA 2 with U41A
B23: target 1 A1U,C6A (mixed)
RNA 1: B1 RNA 1
RNA 2: B1 RNA 2 with C34A, U43A, C46A, A51U
B24: target 1 insU 3' of 9,insU 3' of 6 (mixed)
RNA 1: B1 RNA 1
RNA 2: B9 RNA 2 with C45U, G47C, C49G
B25: target 1 insA 3' of 5,insU 3' of 2 (mixed)
RNA 1: B1 RNA 1
RNA 2: B9 RNA 2 with U48A, C50U, U51C, C52U
B26: target 1 insA 3' of 19,insA 3' of 11 (mixed)
RNA 1: B1 RNA 1
RNA 2: B4 RNA 2 with U43A
B27: target 1 insC 3' of 9,insA 3' of 4 (mixed)
RNA 1: B1 RNA 1
RNA 2: B9 RNA 2 with U44C, C45U, G47C, U48G, C50A
B28: target 1 C6A,C7A (mixed)
RNA 1: B1 RNA 1
RNA 2: B1 RNA 2 with C34A, U43A, C45A, C46A
B29: target 1 insU 3' of 20,insA 3' of 6 (mixed)
RNA 1: B1 RNA 1
RNA 2: B4 RNA 2 with A34U, U44A, A45U, U46C, C48A
B30: target 1 insA 3' of 21,insA 3' of 11 (mixed)
RNA 1: B1 RNA 1
RNA 2: B4 RNA 2 with U33A, A34U, U43A
B31: target 1 insA 3' of 6,insU 3' of 4 (mixed)
RNA 1: B1 RNA 1
RNA 2: B9 RNA 2 with G47A, U48G, C50U

The data set deals with T1, EsCas13d, nuclease-dead (Eubacterium siraeum, UniProt B0MS50, R295A;H300A;R849A;H854A).
T1 sequence: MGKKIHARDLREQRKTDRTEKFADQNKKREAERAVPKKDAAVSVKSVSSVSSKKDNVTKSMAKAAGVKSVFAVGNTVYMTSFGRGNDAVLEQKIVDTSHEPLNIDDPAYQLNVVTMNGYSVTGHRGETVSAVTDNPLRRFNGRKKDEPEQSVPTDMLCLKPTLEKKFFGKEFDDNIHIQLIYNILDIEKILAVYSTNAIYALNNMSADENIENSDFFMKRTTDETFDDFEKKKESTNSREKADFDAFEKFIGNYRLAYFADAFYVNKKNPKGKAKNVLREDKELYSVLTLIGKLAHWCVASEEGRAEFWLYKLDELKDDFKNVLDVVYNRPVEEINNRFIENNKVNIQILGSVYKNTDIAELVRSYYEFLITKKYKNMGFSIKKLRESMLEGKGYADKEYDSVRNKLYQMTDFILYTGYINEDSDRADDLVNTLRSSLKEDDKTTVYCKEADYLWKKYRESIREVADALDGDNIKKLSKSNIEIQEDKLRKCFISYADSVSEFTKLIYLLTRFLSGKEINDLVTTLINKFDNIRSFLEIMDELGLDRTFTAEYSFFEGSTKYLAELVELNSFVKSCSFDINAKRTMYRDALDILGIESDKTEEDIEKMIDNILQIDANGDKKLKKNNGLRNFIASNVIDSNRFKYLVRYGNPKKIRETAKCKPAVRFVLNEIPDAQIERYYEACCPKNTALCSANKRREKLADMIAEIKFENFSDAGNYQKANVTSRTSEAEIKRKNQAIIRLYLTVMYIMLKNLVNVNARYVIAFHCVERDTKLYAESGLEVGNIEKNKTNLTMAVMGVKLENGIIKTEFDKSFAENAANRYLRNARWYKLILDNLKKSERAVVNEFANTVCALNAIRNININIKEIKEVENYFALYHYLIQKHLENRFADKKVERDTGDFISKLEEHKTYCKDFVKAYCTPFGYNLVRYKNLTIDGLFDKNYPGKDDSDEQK
Kind of data set: crRNA (strand 1, pre-loaded); Mg2+; 40 mM Tris-HCl pH 7.5, 150 mM NaCl, 6 mM MgCl2, 1 mM DTT, 0.1% Tween-20, 0.2 mg/ml BSA; 25 C; 10 min per concentration, then washed. The conditions noted are these: tags: His6-TwinStrep-SUMO cleaved; N-terminal SNAP kept (SNAP-Surface 488); label: 3' end held by stalled T7 RNA polymerase.
A word on the Kd: it is a measure of binding affinity in units of concentration. Turning to B1, the Kd is 60 ± 5 nM. For B2 the value was 9.4 ± 0.7 nM; for B3, 78 ± 16 nM; for B4, 17.9 ± 1.2 nM. With B5, binding was put at a Kd of 6.17 ± 0.3 nM. Next, B6: 33 ± 1.8 nM. For B7 the value was 43 ± 4 nM; for B8, 94 ± 23 nM. Next, B9: 35 ± 4 nM; B10: 25 ± 4 nM. B11 had a Kd of 13.1 ± 0.8 nM.

Molecule B12 displayed a Kd of 56 ± 7 nM. For B13 the value was 12 ± 0.9 nM; for B14, 35.2 ± 3.2 nM.

In turn, B15 gave a Kd of 21.3 ± 1.1 nM.

Molecule B16 gave a Kd of 6.6 ± 0.7 nM. In turn, B17 yielded a Kd of 10.4 ± 1.1 nM.

For the molecule B18, the affinity, expressed as Kd, was 51 ± 5 nM. For B19 the value was 7.7 ± 0.5 nM; for B20, 4.87 ± 0.25 nM; for B21, 23.5 ± 2.7 nM. With B22, the Kd came to 11.1 ± 0.9 nM. Next, B23: 7.5 ± 0.4 nM; B24: 46 ± 6 nM; B25: 14.7 ± 0.9 nM. Take B26: the Kd amounted to 41.3 ± 2.2 nM.

Regarding B27, the Kd came to 9.5 ± 1 nM.

In the case of B28, the Kd came to 7.47 ± 0.35 nM. For B29 the value was 15.9 ± 1.1 nM; for B30, 36.6 ± 2.9 nM; for B31, 19.8 ± 1.1 nM.
